From patent US20020151680A1 (VEGENICS, published 2002)

Columns and labels:
Assay in all cases: 35S IP, receptor-Fc
VEGFR-3-Fc = molecular target: T1, VEGFR-3-Fc (UniProt P35916 25-329)
T1 construct: domain: first three Ig domains; used as conditioned supernatant of 293T cells; also called VEGFR-3-Fc fusion protein; not shown: Fc fragment of the pIg vector
T1 sequence (looked up): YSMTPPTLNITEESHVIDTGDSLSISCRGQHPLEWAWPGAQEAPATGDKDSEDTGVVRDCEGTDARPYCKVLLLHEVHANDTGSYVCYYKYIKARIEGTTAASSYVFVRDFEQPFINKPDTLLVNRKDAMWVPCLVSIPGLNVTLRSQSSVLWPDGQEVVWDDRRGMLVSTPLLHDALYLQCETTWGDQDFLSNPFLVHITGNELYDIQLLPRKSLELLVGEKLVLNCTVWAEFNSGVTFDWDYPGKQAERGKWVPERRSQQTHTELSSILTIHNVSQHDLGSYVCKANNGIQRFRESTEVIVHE
Experimental: (§1) The binding assay procedure was identical to the immunoprecipitation using pentahistidine antibody described in Example 2, apart from the composition of the immunoprecipitation (IP) mixes. The IP mixes used for the receptor binding analysis were as follows: For VEGFR- 1 binding assays, the IP mix was phosphate buffered saline (PBS) containing 1.5% BSA, 0.06% Tween 20, 3 μg/ml heparin and 400 ng/ml VEGFR-1 -Fc fusion protein (100 μl of this IP mix was added to 200 μl of sample supernatant); for VEGFR-2 binding assays, the IP mix was 82% conditioned cell supernatant from 293T cells transiently expressing VEGFR-2-Fc fusion protein in mixture with 18% of a PBS solution that contained 5% BSA, 0.2% Tween 20, and 10 μg/ml heparin (250 μl of IP mix was added to 200 μl of sample supernatant); and for VEGFR-3 binding assays, the IP mix was 82% conditioned cell supernatant from 293T cells transiently expressing VEGFR-3-Fc fusion protein, 18% of PBS containing 5% BSA, 0.2% Tween 20, and 10 μg/ml heparin (250 μl of IP mix was added to 200 μl of sample supernatant).

VEGFR-1-Fc = molecular target: T2, VEGFR-1-Fc (UniProt P17948 27-331)
T2 construct: domain: first three Ig domains; expressed in Drosophila S2 cells, purified on Protein A sepharose; also called VEGFR-1-Fc fusion protein; not shown: Fc fragment from the Signal-pIgPlus vector
T2 sequence (P17948 27-331): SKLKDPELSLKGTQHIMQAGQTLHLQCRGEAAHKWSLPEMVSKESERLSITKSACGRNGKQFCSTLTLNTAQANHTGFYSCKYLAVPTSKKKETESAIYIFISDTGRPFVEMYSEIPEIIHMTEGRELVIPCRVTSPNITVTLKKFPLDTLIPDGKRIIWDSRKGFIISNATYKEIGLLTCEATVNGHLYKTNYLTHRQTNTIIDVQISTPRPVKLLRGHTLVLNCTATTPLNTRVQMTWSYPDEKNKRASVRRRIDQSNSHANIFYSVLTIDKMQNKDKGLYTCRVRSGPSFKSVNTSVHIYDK
Experimental: as §1

VEGFR-2-Fc = molecular target: T3, VEGFR-2-Fc (UniProt P35968 24-326)
T3 construct: domain: first 3 Ig domains; used as conditioned supernatant of 293T cells; also called VEGFR-2-Fc fusion protein; not shown: Fc fragment of the pIg vector
T3 sequence (P35968 24-326): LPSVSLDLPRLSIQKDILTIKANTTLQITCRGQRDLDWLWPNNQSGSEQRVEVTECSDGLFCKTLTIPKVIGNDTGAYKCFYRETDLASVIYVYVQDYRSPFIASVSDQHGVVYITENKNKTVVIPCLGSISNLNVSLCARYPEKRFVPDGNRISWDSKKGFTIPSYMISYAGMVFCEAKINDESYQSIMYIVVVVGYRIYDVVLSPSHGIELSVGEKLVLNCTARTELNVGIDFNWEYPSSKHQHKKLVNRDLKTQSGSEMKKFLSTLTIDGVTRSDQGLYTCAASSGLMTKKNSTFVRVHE
Experimental: as §1

Binder | binding result (VEGFR-3-Fc) | binding result (VEGFR-1-Fc) | binding result (VEGFR-2-Fc)
31-1 (ligand) GQNHHEVVKSIDNEWRKTQCMPIETLVDIFQEYPDEIEYIFKPSCVPLMRCGGCCNDEGLECVPTEESNITMQIMRIKPHQGQHIGEMSFLQHNKCECRPKKDLVFEQKLISEEDLNSAVDHHHHHH | no binding | no binding | no binding
12-16 (ligand) GQNHHEVVKFMDVYQRSYCHPIETLVDIFQEFGVATNTFFKPPCVSVYRCGLLQ |  | no binding | no binding
31-11 (ligand) GQNHHEVVKSIDNEWRKTQCMPIETLVDIFQEYPDEIEYIFKPSCVPLMRCGGCCNSEGLQCVPTEESNITMQIMRITVPLSQGPKPVTISFLQHNKCECRPKKDLVFEQKLISEEDLNSAVDHHHHHH | no binding | no binding | no binding
31-6 (ligand) GQNHHEVVKSIDNEWRKTQCMPIETLVDIFQEYPDEIEYIFKPSCVPLMRCGGCCNDEGLECMNTSTSYLSKTLFEIKPHQGQHIGEMSFANHTSCRCMSKLDLVFEQKLISEEDLNSAVDHHHHHH | no binding | no binding | no binding
